From patent publication KR20240034671A (dated 2024) come the findings set out here.

In this assay the target is T1, human PTK7-Ig3-4-His (human, UniProt Q13308 221-409, limits assumed).
T1 construct: domain: Ig3-4; Made from the hPTK7-Ig1-4-His construct by DpnI-mediated deletion mutagenesis; expressed in HEK293 cells; also called hPTK7-Ig3-4-His; STK7-lg3-4-His [sic]
T1 sequence: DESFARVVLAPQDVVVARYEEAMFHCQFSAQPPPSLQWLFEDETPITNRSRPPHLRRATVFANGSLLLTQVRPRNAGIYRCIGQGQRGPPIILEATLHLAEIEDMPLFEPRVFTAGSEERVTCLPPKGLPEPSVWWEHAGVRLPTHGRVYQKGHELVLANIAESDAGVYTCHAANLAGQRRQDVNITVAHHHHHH
As to the kind of experiment: Ni-NTA pull-down of His-tagged construct incubated with mAb at 1:1 molar ratio, western blot.

B1: anti-PTK7 mAb-52 (antibody, V domains shown)
VH: EVQLQQSGAELVKPGASVKLSCTASGFNIEDTYIHWVKQRPEQGLEWIGRIDPANGNDKYDPKFQGKATITADTSSNTAYLQLSSLTSEDTAVYYCARGDANYGSYWGQGTLVTVSA
VL: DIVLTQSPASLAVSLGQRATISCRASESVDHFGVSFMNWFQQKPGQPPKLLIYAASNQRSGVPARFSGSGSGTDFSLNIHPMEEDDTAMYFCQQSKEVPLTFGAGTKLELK
notes: Mouse monoclonal antibody from a hybridoma raised against purified human sPTK7, purified from ascites
For the molecule B1, the binding result is reported as “no binding”.
